The text below walks through data of US8846363B2, “Compositions of and methods of using sulfatases from Flavobacterium heparinum” (priority 2007, dated 2014).

Data set [1] can be described thus: Coupled N-sulfamidase/α-glucosidase fluorimetric plate assay (reaction conditions, steady-state kinetics). In kind it is biochemical. The text has this: (§1) Indirect measurement of enzyme activity was also made using a fluorimetrically-based plate assay in which the prerequisite desulfation of the appropriate glucopyranoside 1→4 methlybelliferone substrate by either the 6-O-sulfatase or N-sulfamidase was coupled to the glucosidase-mediated hydrolysis of the stereo-specific 1→4 glycosidic linkage between the pyranose ring and the adjoining fluorophore. Release of the free fluorophore (4-MU) was monitored spectroscopically as described above for the arylsulfatase assay using 4-MU sulfate. The two sulfatase assays differed in the choice of substrate in accordance to their specificity as well as the glucosidase added during the second, […] step. For the 6-O-sulfatase, the hydrolysis of the substrate 4-MU-β-D-GlcNAc,6S at the 6-OH position was coupled to β-glucosidase purified from sweet almonds (MP Biomedicals, Solon, Ohio, Catalog No. 195197). Likewise, N-sulfamidase hydrolysis of 4-MU-α-D-GlcNS at the 2-amino position was coupled to α-glucosidase (MP Biomedicals, Catalog No. 153487). […] The presumption of the first (sulfatase) activity being the rate-limiting step was established experimentally. Reaction conditions were optimized to satisfy three related criteria: 1) linear readout of fluorescent signal which is directly proportional to sulfatase activity; 2) quantitative release of 4-MU by glucosidase activity under every biochemical condition examined and; 3) negligible fluorescent quenching of the free chromophore.
Coupled N-sulfamidase assay was generally described for the 6-O-sulfatase, but with the following modifications: 4-MU-GlcNS as substrate, 50 mM sodium acetate at pH 6.0 (instead of 5.5) and 1 μM enzyme. For the second enzyme step, 5 units of α-glucosidase were added. Enzyme incubation was carried out for 22 hours at 37° C. The obvious difference in enzyme efficacies between α-glucosidase versus β-glucosidase is reflected in the substantially longer incubation times required for the α-glucosidase to quantitatively hydrolyze the glycosidic α1→4 linkage between the fluorophore and the desulfated glucosamine. […]

Data set [2] is described as follows: CE-LIF detection of sequentially degraded oligosaccharides. The class given is biochemical. The following applies: after Δ4,5 glycuronidase treatment of ΔUHNSIHNSIHNS
On the procedure:
The APTS derivitization protocol was adapted from Chen et al. (Chen F. T. A., and Evangelista R. A. (1995) Analytical Biochemistry 230, 273-280). Briefly, 2 μl of 100 mM 9-aminopyrene-1,4,6-trisulfonate (APTS) in 25% acetic acid (v/v) were mixed with 10 μl of 1M sodium cyanoborohydride in tetrohydrofuran and 1 μmol of saccharide. The reaction mixture was incubated at 75° C. for 2 hr and was diluted 1:100 prior to CE analysis. CE-LIF was performed on a Beckman Coulter ProteomeLab PA 800 with 488 nm argon LIF module. Samples were loaded onto a N—CHO capillary (50 μm I.D.×65 cm total length) using 0.5 psi of pressure at the anode for 20 sec. Electrophoretic separations were performed using a 20 kV potential in a 100 mM sodium borate, pH 10.2 buffer for 15 min at 25° C. Fluorescence emission spectra were collected using a 520 nm narrow band filter.

Substrate in data set [3]: CC(=O)N[C@H]1[C@H](Oc2ccc3c(C)cc(=O)oc3c2)O[C@H](COS(=O)(=O)O)[C@@H](O)[C@@H]1O
The data set is described as follows: Steady-state kinetics, coupled 6-O-sulfatase/β-glucosidase fluorimetric assay with 4-MU-GlcNAc,6S. The class given is biochemical, Flavobacterium heparinum (Pedobacter heparinus).
Excerpt: Recombinant protein expression in the E. coli strain BL21(DE3) and one-step affinity purification by nickel chelation chromatography were as described for 2-O-sulfatase (Myette et al., 2003 J Biol Chem 278, 12157-12166). The prediction of NH2-terminal signal sequences and putative cleavage sites for the two respective proteins was made by the Von Heijne computational method (Nielsen et al., 1997 Protein Eng 10, 1-6.). Engineering and expression of these truncated proteins (minus signal sequences) were as described above for the full-length genes with the exception of substituting the 5′ primers which were used in the original PCR amplification step. These internal primers included 5′ TCTAGACATATGTCTTGCCAGCAGCCTAAAC 3′ (for ORF B; SEQ ID NO: 15) and 5′ TCTAGACATATGTCCTGCACTTCGCCGGAA 3′ (for ORF C; SEQ ID NO: 16), with the Nde 1 site underlined. As such, the ORF B gene sequence begins at Met 18 (FIG. 1). Likewise, the ORF C gene sequence begins at Ser 21 (FIG. 2). Removal of the 6×His tag was achieved by site-specific protease cleavage using the thrombin cleavage capture kit (Novagen, San Diego, Calif.). Proteolysis conditions were generally as described for other recombinantly expressed flavobacterial heparin degrading enzymes. Following concentrating the enzymes by ultrafiltration, cleaved proteins were dialyzed overnight against 4 liters of 50 mM Tris, pH 7.5 and 0.1 M NaCl, 4° C., using a 3 mL slide-a-lyzer cassette with a 10,000 molecular weight cutoff (MWCO) (Pierce Chemical, Rockland, Ill.).
Coupled Enzyme Assay for the Determination of Biochemical Reaction Conditions and Steady-State Kinetics
as §1
For the 6-O-sulfatase/β-glucosidase assay, the standard reaction conditions included 2 μM recombinant enzyme, 50 mM sodium acetate buffer, pH 5.5, and 5 mM CaCl2 in a 20 μl reaction volume. 4-MU-GlcNAc,6S substrate concentration was varied from 0.1-2 mM. 2 μL of enzyme were added to each well of a microtiter plate (prechilled on ice), plate gently vortexed, and contents of each well spun down for 1 minute at 500×g, 4° C. The assay was initiated by transferring the 96 well plate to a heating block prequilibrated at 30° C. Sulfatase incubation (first enzyme) was carried out at 30° C. for 20 minutes, after which enzyme activity was inactivated by heat denaturation (95° C., 10 minutes). In the second enzyme (glucosidase) step, the microtiter plate was once again chilled on ice. […]

The mark [4] stands for this setting: other: Addition: 0.5 mM Ca^+2, pH 5.5, 30° C.
Setting [5] is: other: Addition: 5 mM Ca^+2, pH 5.5, 30° C.
[6] abbreviates: other: Addition: none, pH 5.5, 30° C.

B1: Flavobacterium heparinum N-sulfamidase (ORF C), recombinant, NH2-terminal truncation lacking signal sequence, SEQ ID NO: 4 (Pedobacter heparinus DSM 2366) (protein)
chain: SCTSPEKKTDRPNILMIMSDNQSWNHVGSYGDQTVRTPNMDRIAKEGVRFTNAFCSSPSCTPARAGMLTGQDIWRLEDGGNLWGVLPVKYKVYPDLLEEAGYAIGFQGKGWGPGSFEANKRPRNPAGNEFKSFGAFLKDKKEGPWCYWISSHEPHRPYVEGSGEKAGIDPNKVKVPAYLPDHISIRKDIADYYAAVETFDRELGEALDQLKASGELDNTVIVVCSDNGWQMPRGLANLYDFGTHVPLIISWPGKFKQDVVADNLVTLNDLAPTFLQLGKVPVPADMTGKSLLPIVEAGKKDEKPRDYVVLGRERHAFVRRHGLGYPGRAIRTKDYLYIKNYEPNRWPAGDPPFYGDIDPYMFNWPGETKYYLIEHKDDPKVKSFFELGMGKRPAEELFDINKDPDELHNLAALPEYQKIKQELVAKLRNYLVATKDPRETNGNIQIWDTAAYFSEIDKTPKPSKEMQKRFKLDSSYNYLK
notes: E. coli BL21(DE3), N-terminal 6xHis removed by thrombin
With B1, in data set [1], the “calcium requirement for activity” value is on record as “required calcium for activity”. Besides, in data set [1] (1 mM or 5 mM divalent metal), the “effect of Mg^+2 or Mn^+2 on activity” value is listed as “only negligible effects”. In addition, the “activity remaining relative to the zero NaCl control” value in data set [1] (1 M NaCl) was “less than 20%”. Besides, the “desulfation of oligosaccharide at the non-reducing end” value in data set [2] is given as “does desulfate some oligosaccharides in an exolytic fashion”.

B2: Flavobacterium heparinum 6-O-sulfatase (ORF B), recombinant, NH2-terminal truncation lacking signal sequence, SEQ ID NO: 2 (Pedobacter heparinus DSM 2366) (protein)
chain: TLMSCQQPKPAESAKRPNIVFIMTDDHTIQAISAYGSKLVKTPNLDRIANEGMLFNNCFVTNAVCGPSRATILTGKYSHLNGLTDNSKVFDSTQVIYPQLLKKAGYQTAMIGKWHLGSTPMGFDYYSILPNQGQYYQPEFIENGHLVKEKGYVTDLITDKAIGFLEKRDHDKPFLMIYQHKAPHRNWLPAPRHLGMFDDTVFPEPANLLDDFKGRGRAAKEQLMNISTDMWPAWDLKMLSTAQLDSMAKLPVSPKFKDAKGDDYQQANDPSLDKARFFEVYNRMTDAEKVQWRKVYDKRVAEFKRLNPKGADLVRWKYQQYMRDYLACVVSVDENVGRLMDYLKKIGELDNTIIVYTSDQGFYLGEHGYFDKRFMYDESFRTPLMVRYPPSVKAGSVSNAFAMNLDFAPTLLDYAGVKIPADMQGLSLRPVLDNAGKSPENWRKAVYYHYYEFPSWHMVKRHYGIRTERYKLIHFYNDIDEWELYDMQKDPHEMQNLYNDKAYEPIIKDLKVQMKKLQVQYKDTNPTEAL
notes: as for B1
Take B2: the Km came out at 217 µM in data set [3] (setting [4]), 327 µM in data set [3] (setting [5]) and 146 µM in data set [3] (setting [6]). The turnover number (kcat) in data set [3] (setting [4]) is 0.055 s⁻¹; in data set [3] (setting [5]) it was 0.113 s⁻¹; in data set [3] (setting [6]), 0.0417 s⁻¹.

The Km is the concentration of substrate that gives half-maximal velocity. Broadly, the kcat is the number of substrate molecules converted per active site and unit of time at saturation.
